Data: article PMC6166933 (2018)

What was measured:
Recombinant human RO60 [1] = biological target: T1, Recombinant human RO60 (human, UniProt P10155 1-538); assay: BLI; rRO60 1833 nM
Recombinant human RO60 [2] = biological target: T1, Recombinant human RO60; assay: BLI; rRO60 917 nM

T1 sequence (P10155 whole entry): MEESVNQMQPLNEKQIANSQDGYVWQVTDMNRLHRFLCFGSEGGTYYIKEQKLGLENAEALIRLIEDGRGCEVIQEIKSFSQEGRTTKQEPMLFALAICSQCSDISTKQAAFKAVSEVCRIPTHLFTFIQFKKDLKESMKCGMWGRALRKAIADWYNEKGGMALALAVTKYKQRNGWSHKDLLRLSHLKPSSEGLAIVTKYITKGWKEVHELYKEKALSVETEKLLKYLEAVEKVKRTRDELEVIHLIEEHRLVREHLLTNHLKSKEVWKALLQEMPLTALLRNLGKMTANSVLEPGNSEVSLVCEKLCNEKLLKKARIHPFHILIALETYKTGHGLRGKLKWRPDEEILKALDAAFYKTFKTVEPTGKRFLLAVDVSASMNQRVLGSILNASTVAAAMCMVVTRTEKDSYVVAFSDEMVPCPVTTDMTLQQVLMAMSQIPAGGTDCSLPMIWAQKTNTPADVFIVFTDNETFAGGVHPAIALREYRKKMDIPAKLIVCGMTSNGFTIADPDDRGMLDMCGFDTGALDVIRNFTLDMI

- koff (Recombinant human RO60 [1]): 0.0062 s⁻¹
- koff (Recombinant human RO60 [2]): 0.0046 s⁻¹
B1: Recombinant GST-tagged human DDX6 (natural protein)
chain: MSTARTENPVIMGLSSQNGQLRGPVKPTGGPGGGGTQTQQQMNQLKNTNTINNGTQQQAQSMTTTIKPGDDWKKTLKLPPKDLRIKTSDVTSTKGNEFEDYCLKRELLMGIFEMGWEKPSPIQEESIPIALSGRDILARAKNGTGKSGAYLIPLLERLDLKKDNIQAMVIVPTRELALQVSQICIQVSKHMGGAKVMATTGGTNLRDDIMRLDDTVHVVIATPGRILDLIKKGVAKVDHVQMIVLDEADKLLSQDFVQIMEDIILTLPKNRQILLYSATFPLSVQKFMNSHLQKPYEINLMEELTLKGVTQYYAYVTERQKVHCLNTLFSRLQINQSIIFCNSSQRVELLAKKISQLGYSCFYIHAKMRQEHRNRVFHDFRNGLCRNLVCTDLFTRGIDIQAVNVVINFDFPKLAETYLHRIGRSGRFGHLGLAINLITYDDRFNLKSIEEQLGTEIKPIPSNIDKSLYVAEYHSEPVEDEKP
